Target: human Fn14 on cells (NFkB/HEK293 reporter cells, A375 cells) (human) (UniProt Q9NP84)
Experiment: cell-based or functional assay

Sequence of human Fn14 on cells (NFkB/HEK293 reporter cells, A375 cells) (human) (Q9NP84 28-129): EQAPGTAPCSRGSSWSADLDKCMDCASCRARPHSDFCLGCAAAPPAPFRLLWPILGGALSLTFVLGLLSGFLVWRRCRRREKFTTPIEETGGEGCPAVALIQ

B1: mouse anti-human Fn14 antibody CRCBT-06-002 (antibody, from another filing, V domains shown)
VH: EVKLQQSGGGLVQPGGSMKLSCVASGFTFSYYWMNWVRQSPEQGLEWIAEIRLQSNDYPTHYAESVKGRFTISRDDSKNSVYLQMNNLRPEDTGIYYCACRYADYFDHWGQGTTLTVSS
VL: DTVLTQSPASLVVSLGQRATISCRASQSVSTSDYSYIHWYQQKPGQPPKFLIKYASNRDSGVPARFSGSGSGTDFTLNIHPVEEDDTAIYYCQHSWEIPPTFGAGTKLELQR
B1 gave an IC50 (ng/mL), inhibition of Tweak-induced NFkB activation (luciferase reporter, NFkB/HEK293 cells), geometric mean of three trials of 115 ng/mL.

Source: patent publication US20210388096A1
